# According to patent publication US8841085 (KOREA INSTITUTE OF SCIENCE AND TECHNOLOGY, dated 2014):
# Where two headings read alike, the source gives them in different places.
# T1: MMP-7
# T1 sequence (P09237 95-267, species assumed, looked up): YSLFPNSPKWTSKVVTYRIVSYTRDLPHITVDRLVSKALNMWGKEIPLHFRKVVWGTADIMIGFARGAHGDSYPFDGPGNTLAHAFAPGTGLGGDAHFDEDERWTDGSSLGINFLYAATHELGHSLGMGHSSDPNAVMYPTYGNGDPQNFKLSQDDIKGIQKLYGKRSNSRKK
# B1: PN1 (P1: Cy5.5-Gly-Pro-Leu-Gly-Val-Arg-Gly-Lys(BHQ3)-Gly-Gly-COOH conjugated to glycol chitosan-bile acid nanoparticle) (peptide)
# peptide: {Cy5.5}-GPLGVRGK(BHQ3)GG-{glycol chitosan‑cholanic acid nanoparticle}
# modifications: not fully specified; printed as Cy5.5-Gly-Pro-Leu-Gly-Val-Arg-Gly-Lys(BHQ3)-Gly-Gly-COOH
# B2: PN3 (P3: Cy5.5-Gly-Pro-Leu-Gly-Met-Arg-Gly-Leu-Gly-Lys(BHQ3)-Gly-Gly-COOH conjugated to glycol chitosan-bile acid nanoparticle) (peptide)
# peptide: {Cy5.5}-GPLGMRGLGK(BHQ3)GG-{glycol chitosan‑cholanic acid nanoparticle}
# modifications: not fully specified; printed as Cy5.5-Gly-Pro-Leu-Gly-Met-Arg-Gly-Leu-Gly-Lys(BHQ3)-Gly-Gly-COOH
# B3: PN2 (P2: Cy5.5-Gly-Val-Pro-Leu-Ser-Leu-Thr-Met-Gly-Lys(BHQ3)-Gly-Gly-COOH conjugated to glycol chitosan-bile acid nanoparticle) (peptide)
# peptide: {Cy5.5}-GVPLSLTMGK(BHQ3)GG-{glycol chitosan‑cholanic acid nanoparticle}
# modifications: not fully specified; printed as Cy5.5-Gly-Val-Pro-Leu-Ser-Leu-Thr-Met-Gly-Lys(BHQ3)-Gly-Gly-COOH
# Key:
# Test in all cases: cell-based or functional assay
# MMP-9 [1] = target: MMP-9
# MMP-3 [2] = target: MMP-3
# MMP-13 [3] = target: MMP-13
# MMP-7 [4] = target: T1, MMP-7
# MMP-2 [5] = target: MMP-2
# MMP-9 [6] = target: MMP-9; remark: listed apart in the source
# MMP-3 [7] = target: MMP-3; remark: listed apart in the source
# MMP-13 [8] = target: MMP-13; remark: listed apart in the source
# MMP-7 [9] = target: T1, MMP-7; remark: listed apart in the source
# MMP-2 [10] = target: MMP-2; remark: listed apart in the source
# MMP-9 [11] = target: MMP-9; remark: listed apart in the source
# MMP-3 [12] = target: MMP-3; remark: listed apart in the source
# MMP-13 [13] = target: MMP-13; remark: listed apart in the source
# MMP-7 [14] = target: T1, MMP-7; remark: listed apart in the source
# MMP-2 [15] = target: MMP-2; remark: listed apart in the source
# MMP-9 [16] = target: MMP-9; remark: listed apart in the source
# MMP-3 [17] = target: MMP-3; remark: listed apart in the source
# MMP-13 [18] = target: MMP-13; remark: listed apart in the source
# MMP-7 [19] = target: T1, MMP-7; remark: listed apart in the source
# MMP-2 [20] = target: MMP-2; remark: listed apart in the source
binder,measurement,setting,value
B1,fluorescent intensity (FI) at 0 min,MMP-9 [1],350
same,fluorescent intensity (FI) at 10 min,MMP-9 [1],680
same,fluorescent intensity (FI) at 20 min,MMP-9 [1],1350
same,fluorescent intensity (FI) at 30 min,MMP-9 [1],2010
same,fluorescent intensity (FI) at 40 min,MMP-9 [1],2250
same,fluorescent intensity (FI) at 50 min,MMP-9 [1],2850
same,fluorescent intensity (FI) at 60 min,MMP-9 [1],3220
same,fluorescent intensity (FI) at 0 min,MMP-3 [2],307
same,fluorescent intensity (FI) at 10 min,MMP-3 [2],285
same,fluorescent intensity (FI) at 20 min,MMP-3 [2],363
same,fluorescent intensity (FI) at 30 min,MMP-3 [2],421
same,fluorescent intensity (FI) at 40 min,MMP-3 [2],506
same,fluorescent intensity (FI) at 50 min,MMP-3 [2],537
same,fluorescent intensity (FI) at 60 min,MMP-3 [2],630
same,fluorescent intensity (FI) at 0 min,MMP-13 [3],665
same,fluorescent intensity (FI) at 10 min,MMP-13 [3],1930
same,fluorescent intensity (FI) at 20 min,MMP-13 [3],3930
same,fluorescent intensity (FI) at 30 min,MMP-13 [3],5290
same,fluorescent intensity (FI) at 40 min,MMP-13 [3],6510
same,fluorescent intensity (FI) at 50 min,MMP-13 [3],7610
same,fluorescent intensity (FI) at 60 min,MMP-13 [3],8180
same,fluorescent intensity (FI) at 0 min,MMP-7 [4],278
same,fluorescent intensity (FI) at 10 min,MMP-7 [4],288
same,fluorescent intensity (FI) at 20 min,MMP-7 [4],287
same,fluorescent intensity (FI) at 30 min,MMP-7 [4],290
same,fluorescent intensity (FI) at 40 min,MMP-7 [4],294
same,fluorescent intensity (FI) at 50 min,MMP-7 [4],300
same,fluorescent intensity (FI) at 60 min,MMP-7 [4],302
same,fluorescent intensity (FI) at 0 min,MMP-2 [5],379
same,fluorescent intensity (FI) at 10 min,MMP-2 [5],952
same,fluorescent intensity (FI) at 20 min,MMP-2 [5],1720
same,fluorescent intensity (FI) at 30 min,MMP-2 [5],2390
same,fluorescent intensity (FI) at 40 min,MMP-2 [5],2920
same,fluorescent intensity (FI) at 50 min,MMP-2 [5],3210
same,fluorescent intensity (FI) at 60 min,MMP-2 [5],3660
same,"fluorescent intensity (FI) recovered after 60 minutes, fold",MMP-9 [6],9.2 times
same,"fluorescent intensity (FI) recovered after 60 minutes, fold",MMP-3 [7],2 times
same,"fluorescent intensity (FI) recovered after 60 minutes, fold",MMP-13 [8],12.3 times
same,"fluorescent intensity (FI) recovered after 60 minutes, fold",MMP-7 [9],1 times
same,"fluorescent intensity (FI) recovered after 60 minutes, fold",MMP-2 [10],9.7 times
B2,fluorescent intensity (FI) at 0 min,MMP-9 [11],101
same,fluorescent intensity (FI) at 10 min,MMP-9 [11],106
same,fluorescent intensity (FI) at 20 min,MMP-9 [11],109
same,fluorescent intensity (FI) at 30 min,MMP-9 [11],114
same,fluorescent intensity (FI) at 40 min,MMP-9 [11],128
same,fluorescent intensity (FI) at 50 min,MMP-9 [11],130
same,fluorescent intensity (FI) at 60 min,MMP-9 [11],133
same,fluorescent intensity (FI) at 0 min,MMP-3 [12],102
same,fluorescent intensity (FI) at 10 min,MMP-3 [12],128
same,fluorescent intensity (FI) at 20 min,MMP-3 [12],143
same,fluorescent intensity (FI) at 30 min,MMP-3 [12],174
same,fluorescent intensity (FI) at 40 min,MMP-3 [12],200
same,fluorescent intensity (FI) at 50 min,MMP-3 [12],217
same,fluorescent intensity (FI) at 60 min,MMP-3 [12],249
same,fluorescent intensity (FI) at 0 min,MMP-13 [13],101
same,fluorescent intensity (FI) at 10 min,MMP-13 [13],131
same,fluorescent intensity (FI) at 20 min,MMP-13 [13],166
same,fluorescent intensity (FI) at 30 min,MMP-13 [13],234
same,fluorescent intensity (FI) at 40 min,MMP-13 [13],281
same,fluorescent intensity (FI) at 50 min,MMP-13 [13],355
same,fluorescent intensity (FI) at 60 min,MMP-13 [13],456
same,fluorescent intensity (FI) at 0 min,MMP-7 [14],104
same,fluorescent intensity (FI) at 10 min,MMP-7 [14],90.1
same,fluorescent intensity (FI) at 20 min,MMP-7 [14],87.6
same,fluorescent intensity (FI) at 30 min,MMP-7 [14],87
same,fluorescent intensity (FI) at 40 min,MMP-7 [14],91.5
same,fluorescent intensity (FI) at 50 min,MMP-7 [14],94.9
same,fluorescent intensity (FI) at 60 min,MMP-7 [14],86.3
same,fluorescent intensity (FI) at 0 min,MMP-2 [15],77.4
same,fluorescent intensity (FI) at 10 min,MMP-2 [15],91
same,fluorescent intensity (FI) at 20 min,MMP-2 [15],125
same,fluorescent intensity (FI) at 30 min,MMP-2 [15],151
same,fluorescent intensity (FI) at 40 min,MMP-2 [15],189
same,fluorescent intensity (FI) at 50 min,MMP-2 [15],238
same,fluorescent intensity (FI) at 60 min,MMP-2 [15],287
same,"fluorescent intensity (FI) recovered after 60 minutes, fold",MMP-9 [6],1.3 times
same,"fluorescent intensity (FI) recovered after 60 minutes, fold",MMP-3 [7],2.4 times
same,"fluorescent intensity (FI) recovered after 60 minutes, fold",MMP-13 [8],4.3 times
same,"fluorescent intensity (FI) recovered after 60 minutes, fold",MMP-7 [9],0.8 times
same,"fluorescent intensity (FI) recovered after 60 minutes, fold",MMP-2 [10],3.7 times
B3,fluorescent intensity (FI) at 0 min,MMP-9 [16],182
same,fluorescent intensity (FI) at 10 min,MMP-9 [16],186
same,fluorescent intensity (FI) at 20 min,MMP-9 [16],186
same,fluorescent intensity (FI) at 30 min,MMP-9 [16],187
same,fluorescent intensity (FI) at 40 min,MMP-9 [16],239
same,fluorescent intensity (FI) at 50 min,MMP-9 [16],233
same,fluorescent intensity (FI) at 60 min,MMP-9 [16],248
same,fluorescent intensity (FI) at 0 min,MMP-3 [17],336
same,fluorescent intensity (FI) at 10 min,MMP-3 [17],226
same,fluorescent intensity (FI) at 20 min,MMP-3 [17],408
same,fluorescent intensity (FI) at 30 min,MMP-3 [17],843
same,fluorescent intensity (FI) at 40 min,MMP-3 [17],946
same,fluorescent intensity (FI) at 50 min,MMP-3 [17],1070
same,fluorescent intensity (FI) at 60 min,MMP-3 [17],1230
same,fluorescent intensity (FI) at 0 min,MMP-13 [18],287
same,fluorescent intensity (FI) at 10 min,MMP-13 [18],724
same,fluorescent intensity (FI) at 20 min,MMP-13 [18],1060
same,fluorescent intensity (FI) at 30 min,MMP-13 [18],1230
same,fluorescent intensity (FI) at 40 min,MMP-13 [18],1350
same,fluorescent intensity (FI) at 50 min,MMP-13 [18],1360
same,fluorescent intensity (FI) at 60 min,MMP-13 [18],1370
same,fluorescent intensity (FI) at 0 min,MMP-7 [19],328
same,fluorescent intensity (FI) at 10 min,MMP-7 [19],653
same,fluorescent intensity (FI) at 20 min,MMP-7 [19],993
same,fluorescent intensity (FI) at 30 min,MMP-7 [19],1160
same,fluorescent intensity (FI) at 40 min,MMP-7 [19],1250
same,fluorescent intensity (FI) at 50 min,MMP-7 [19],1310
same,fluorescent intensity (FI) at 60 min,MMP-7 [19],1280
same,fluorescent intensity (FI) at 0 min,MMP-2 [20],271
same,fluorescent intensity (FI) at 10 min,MMP-2 [20],245
same,fluorescent intensity (FI) at 20 min,MMP-2 [20],350
same,fluorescent intensity (FI) at 30 min,MMP-2 [20],280
same,fluorescent intensity (FI) at 40 min,MMP-2 [20],335
same,fluorescent intensity (FI) at 50 min,MMP-2 [20],426
same,fluorescent intensity (FI) at 60 min,MMP-2 [20],494
same,"fluorescent intensity (FI) recovered after 60 minutes, fold",MMP-9 [6],1.3 times
same,"fluorescent intensity (FI) recovered after 60 minutes, fold",MMP-3 [7],3.6 times
same,"fluorescent intensity (FI) recovered after 60 minutes, fold",MMP-13 [8],4.8 times
same,"fluorescent intensity (FI) recovered after 60 minutes, fold",MMP-7 [9],3.9 times
same,"fluorescent intensity (FI) recovered after 60 minutes, fold",MMP-2 [10],1.8 times
